US20250382376A1 (FUDAN UNIVERSITY, published 2025)
Where a chain is given by its changes, count along the chain named.

T1: extracellular domain of human CD73 protein, C-terminus polyhistidine-tagged (human, UniProt P21589 27-547)
T1 construct: also the immunogen; also called CD73-ECD; human CD73-ECD
T1 sequence: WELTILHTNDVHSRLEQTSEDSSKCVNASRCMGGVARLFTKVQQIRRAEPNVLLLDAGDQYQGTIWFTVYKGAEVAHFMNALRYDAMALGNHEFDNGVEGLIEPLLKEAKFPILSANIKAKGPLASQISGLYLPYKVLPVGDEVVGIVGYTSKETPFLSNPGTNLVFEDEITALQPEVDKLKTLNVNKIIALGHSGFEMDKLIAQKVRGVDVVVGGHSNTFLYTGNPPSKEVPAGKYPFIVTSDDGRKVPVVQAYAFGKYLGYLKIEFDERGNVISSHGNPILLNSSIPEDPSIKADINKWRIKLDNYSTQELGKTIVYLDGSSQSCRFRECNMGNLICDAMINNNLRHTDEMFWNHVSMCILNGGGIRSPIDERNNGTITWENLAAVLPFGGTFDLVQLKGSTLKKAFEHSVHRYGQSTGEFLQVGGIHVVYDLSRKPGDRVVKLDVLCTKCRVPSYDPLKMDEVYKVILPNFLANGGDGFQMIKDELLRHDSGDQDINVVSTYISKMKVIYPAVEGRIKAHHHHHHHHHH

T2: CD73 on the surface of human cells (human, UniProt P21589 27-549)
T2 sequence (looked up): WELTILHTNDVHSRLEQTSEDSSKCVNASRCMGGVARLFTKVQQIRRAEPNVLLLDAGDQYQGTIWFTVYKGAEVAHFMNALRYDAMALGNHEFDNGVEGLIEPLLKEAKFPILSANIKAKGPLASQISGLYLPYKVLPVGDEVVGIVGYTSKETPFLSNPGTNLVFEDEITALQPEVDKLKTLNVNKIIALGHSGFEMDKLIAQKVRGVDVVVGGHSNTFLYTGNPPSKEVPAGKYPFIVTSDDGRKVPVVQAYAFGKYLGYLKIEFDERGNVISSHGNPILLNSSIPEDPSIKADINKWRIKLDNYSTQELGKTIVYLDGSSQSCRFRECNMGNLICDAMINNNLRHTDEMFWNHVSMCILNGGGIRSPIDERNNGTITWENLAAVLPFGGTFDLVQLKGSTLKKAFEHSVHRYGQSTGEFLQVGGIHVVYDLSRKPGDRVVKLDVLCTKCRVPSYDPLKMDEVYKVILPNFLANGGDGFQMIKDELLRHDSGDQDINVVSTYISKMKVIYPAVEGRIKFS

B1: 5-E11 derived antibody 5-E11AS (VHH, not shown: a dimerising Fc or GST)
VHH: ALQLVESGGGLVQPGGSLRLSCEVSGFTLDYYNIGWFRQAPGKEREGVSCSSASGGSTYYADSVKGRFTISRDNAKNTVYLQMNSLKPEDTGVYYCAAYRGWHPSLDARVYDYWGQGTEVTVSS
B2: 5-E11 derived antibody 5-E11GS (VHH, not shown: a dimerising Fc or GST)
VHH: B1 VHH with A53G
B3: 5-E11 derived antibody 5-E11QS (VHH, not shown: a dimerising Fc or GST)
VHH: B1 VHH with A53Q
B4: humanized nanobody-drug conjugate 3D7-HM9-FC1-MMAE (Fc fusion, part only; not given: Fc segment and drug payload, part only)
VHH, part: QRQLVESGGGLVQPGGSLRLSCAASGFLLDYYVIGWFRQAPGKEREGVSCISGSDRSTYYADSVKGRFTISRDNAKNTVYLQMSSLRAEDTAVYYCAADPSPVTVQAMCLPRFPVPYWGKGTLVTVSS
modifications: vc-MMAE on cysteines; expected DAR 4 for the dimer
B5: humanized antibody fusion protein 3D7-HM9-ABD (VHH)
VHH: B4 VHH, part
B6: chimeric nanobody 1-E7 (Fc fusion)
VHH: B1 VHH with A1Q, L2V, E23A, V24A, S51I, A53N, G55D, G92A, E119Q
notes: Tested as supernatant of transiently transfected HEK293F cells
B7: chimeric nanobody 2-B10 (Fc fusion)
VHH: QLQLVESGGGLVQPGGSLRLSCAASGFTLDDNAIGWFRQAPGKEREGVACMRTSDGDTYYADSVKGRFTISRDNAKNTMYLQMNSLKPEDTAVYYCAAALGTYYSGFYYLAGDGMDYWGKGTLVTVSS
notes: as for B6
B8: chimeric nanobody 3-A3 (Fc fusion)
VHH: QVQLVESGGGSVQPGGSLRLSCAASGFPLDYYTIGWFRQAPGKELEGVSCISSSDSSPYDADSVKGRFTMSRDNANNTVYLQMNSLKPEDTAVYYCAAQRYYYCSLRANVYDYWGQGTQVTVSS
notes: as for B6
B9: chimeric nanobody 2-G9 (Fc fusion)
VHH: B8 VHH with V2L, S11L, P28L, S105A, S124T
notes: as for B6
B10: chimeric nanobody 3-F1 (Fc fusion)
VHH: B8 VHH with G9V, G10S, S11L, P28T, V48I, S52R, G66D, V93D, R107T
notes: as for B6

molecular target: T1, extracellular domain of human CD73 …; test: ELISA on CD73-ECD, 4 µL supernatant of antibody expression, first of two readings; PBS 0.19, 0.18
Method: (§1) The CD73 protein extracellular region (CD73-ECD) was diluted to 1 μg/mL using the coating solution, and an ELISA plate was coated at 100 μL/well at 4° C. overnight. Excess antigens were washed away, and the plate was blocked with 1% BSA at room temperature for 2 hours. Then, 5-fold gradient dilutions of each monoclonal antibody were added at 100 μL/well and incubated at room temperature for 1 hour. Unbound antibodies were washed away, and an appropriate concentration of Staphylococcal protein A labeled with horseradish peroxidase was added at 100 μL/well and incubated at room temperature for 0.5 hours. Unbound secondary antibodies were washed away, and TMB color development solution was added to react for about 15 minutes. 1M HCL was added at 50 µL/well to terminate the color development reaction, and then the absorbance was measured at 450 nm and the data was analyzed.
(§2) CD73 antigen ELISA binding affinity test was performed according to the method of Example 3.

Binder | ELISA reading (not named on the sheet)
B1 | 4.25
B2 | 4.22
B3 | 4.23

molecular target: T1, extracellular domain of human CD73 …; test: ELISA on CD73-ECD, 20 µL supernatant of antibody expression, second of two readings; PBS 0.19, 0.18
Method: as §1, §2

Binder | ELISA reading (not named on the sheet)
B1 | 4.33
B2 | 4.3
B3 | 4.29

molecular target: T2, CD73 on the surface of human cells; test: cell-based or functional assay

Binder | EC50, reversal of the AMP inhibition of human T lymphocyte proliferation [µg/mL] | IC50, inhibition of the catalytic function of CD73 enzyme on MDA-MB-231 cells [µg/mL]
B4 | 0.0197 | 
B5 | 0.0467 | 0.123

molecular target: T1, extracellular domain of human CD73 …; test: ELISA on CD73-ECD, 100 µL supernatant of antibody expression, second of two readings; PBS 0.19, 0.18

Binder | ELISA reading (not named on the sheet)
B1 | 4.27
B2 | 4.22
B3 | 4.28

molecular target: T1, extracellular domain of human CD73 …; test: ELISA on CD73-ECD, 0.8 µL supernatant of antibody expression, second of two readings; PBS 0.19, 0.18
Method: as §1, §2

Binder | ELISA reading (not named on the sheet)
B1 | 4.08
B2 | 4.11
B3 | 4.08

molecular target: T1, extracellular domain of human CD73 …; test: ELISA on CD73-ECD, 100 µL supernatant of antibody expression, first of two readings; PBS 0.19, 0.18
Method: as §1, §2

Binder | ELISA reading (not named on the sheet)
B1 | 4.28
B2 | 4.24
B3 | 4.32

molecular target: T1, extracellular domain of human CD73 …; test: ELISA on human CD73-ECD, 1 µL supernatant of transfected HEK293F cells; PBS blank 0.073
Method: as §1
(§3) For the five antibodies from yeast, after transient expression in HEK293F cells, the supernatant was collected after 2 days of continuous culture and ELISA assay was performed using 100 μL, 10 μL, and 1 μL of the supernatant.

Binder | ELISA (OD450)
B6 | 0.36
B7 | 0.254
B8 | 0.605
B9 | 0.924
B10 | 0.143

molecular target: T1, extracellular domain of human CD73 …; test: ELISA on human CD73-ECD, 100 µL supernatant of transfected HEK293F cells; PBS blank 0.0675
Method: as §1, §3

Binder | ELISA (OD450)
B6 | 4.11
B7 | 4.46
B8 | 4.27
B9 | 4.41
B10 | 3.01

molecular target: T1, extracellular domain of human CD73 …; test: ELISA on human CD73-ECD, 10 µL supernatant of transfected HEK293F cells; PBS blank 0.0615
Method: as §1, §3

Binder | ELISA (OD450)
B6 | 1.61
B7 | 1.28
B8 | 2.11
B9 | 3.35
B10 | 1.11

molecular target: T1, extracellular domain of human CD73 …; test: ELISA on CD73-ECD, 20 µL supernatant of antibody expression, first of two readings; PBS 0.19, 0.18
Method: as §1, §2

Binder | ELISA reading (not named on the sheet)
B1 | 4.24
B2 | 4.15
B3 | 4.17

molecular target: T1, extracellular domain of human CD73 …; test: ELISA on CD73-ECD, 0.8 µL supernatant of antibody expression, first of two readings; PBS 0.19, 0.18
Method: as §1, §2

Binder | ELISA reading (not named on the sheet)
B1 | 4.22
B2 | 4.16
B3 | 4.17

molecular target: T1, extracellular domain of human CD73 …; test: ELISA on CD73-ECD, 4 µL supernatant of antibody expression, second of two readings; PBS 0.19, 0.18

Binder | ELISA reading (not named on the sheet)
B1 | 4.22
B2 | 4.17
B3 | 4.16
